# Source: patent US10829756B2, “Discovery of enzymes from the alpha-keto acid decarboxylase family” (priority 2015, dated 2020)
# B1: 3FZN, ketoacid decarboxylase, SEQ ID NO: 20 (Pseudomonas putida) (protein)
# chain: MASVHGTTYELLRRQGIDTVFGNPGSNELPFLKDFPEDFRYILALQEACVVGIADGYAQASRKPAFINLHSAAGTGNAMGALSNAWNSHSPLIVTAGQQTRAMIGVEALLTNVDAANLPRPLVKWSYEPASAAEVPHAMSRAIHMASMAPQGPVYLSVPYDDWDKDADPQSHHLFDRHVSSSVRLNDQDLDILVKALNSASNPAIVLGPDVDAANANADCVMLAERLKAPVWVAPSAPRCPFPTRHPCFRGLMPAGIAAISQLLEGHDVVLVIGAPVFRYHQYDPGQYLKPGTRLISVTCDPLEAARAPMGDAIVADIGAMASALANLVEESSRQLPTAAPEPAKVDQDAGRLHPETVFDTLNDMAPENAIYLNESTSTTAQMWQRLNMRNPGSYYFCAAGGLGFALPAAIGVQLAEPERQVIAVIGDGSANYSISALWTAAQYNIPTIFVIMNNGTYGALRWFAGVLEAENVPGLDVPGIDFRALAKGYGVQALKADNLEQLKGSLQEALSAKGPVLIEVSTVSPVKGSTENLYFQSGALE
# B2: Native KIVD (ketoisovalerate decarboxylase), wild type, SEQ ID NO:1 (Lactococcus lactis subsp. lactis) (protein)
# chain: MYTVGDYLLDRLHELGIEEIFGVPGDYNLQFLDQIISRKDMKWVGNANELNASYMADGYARTKKAAAFLTTFGVGELSAVNGLAGSYAENLPVVEIVGSPTSKVQNEGKFVHHTLADGDFKHFMKMHEPVTAARTLLTAENATVEIDRVLSALLKERKPVYINLPVDVAAAKAEKPSLPLKKENSTSNTSDQEILNKIQESLKNAKKPIVITGHEIISFGLEKTVSQFISKTKLPITTLNFGKSSVDEALPSFLGIYNGKLSEPNLKEFVESADFILMLGVKLTDSSTGAFTHHLNENKMISLNIDEGKIFNESIQNFDFESLISSLLDLSEIEYKGKYIDKKQEDFVPSNALLSQDRLWQAVENLTQSNETIVAEQGTSFFGASSIFLKPKSHFIGQPLWGSIGYTFPAALGSQIADKESRHLLFIGDGSLQLTVQELGLAIREKINPICFIINNDGYTVEREIHGPNQSYNDIPMWNYSKLPESFGATEERVVSKIVRTENEFVSVMKEAQADPNRMYWIELILAKEDAPKVLKKMGKLFAEQNKS
# How the values were obtained:
# Experiment in all cases: Steady-state kinetics of 2-ketoacid decarboxylase (ADH/NADH coupled)
# Details in all cases: other: pH 7.5, 21° C.
# [1] = substrate: CC(C)C(=O)C(=O)O; type: biochemical
# Source text: (§1) FIG. 17: Depicts protein sequences of various 2-ketoacid decarboxylases (SEQ ID NOS:20-34). Protein Sequence 3FZN is SEQ ID NO: 20. Protein sequence 2VBI is SEQ ID NO: 21. Protein sequence 1ZPD is SEQ ID NO: 22. Protein sequence ZP_08570611 is SEQ ID NO: 23. Protein sequence YP_831380 is SEQ ID NO: 24. Protein sequence ZP_06547677 is SEQ ID NO: 25. Protein sequence 1OVM_P23234 is SEQ ID NO: 26. Protein sequence ZP_06418208 is SEQ ID NO: 27. Protein sequence ZP_07290467 is SEQ ID NO: 28. Protein sequence 2VBG is SEQ ID NO: 29. Protein sequence CAK95977 is SEQ ID NO: 30. Protein sequence ZP_07282849 is SEQ ID NO: 31. Protein sequence ZP_06846103 is SEQ ID NO: 32. Protein sequence ZP_04996569 is SEQ ID NO: 33. Protein sequence YP_381143 is SEQ ID NO: 34.
# (§2) To evaluate if the integrative genomic mining approach enriches the mining for C8 activity, an additional set of previously characterized ketoacid decarboxylases diverse in sequence were experimentally characterized in an equivalent manner. […] The median C8 activity from the GEOs selected using the integrative genomic mining approach is 75-fold higher than the naively picked decarboxylases (Table 1, FIG. 4). This indicates the integrative genomic mining approach is effective in identifying functional enzymes that perform the desired reaction on C8.
# (§3) For the native KIVD and KIVD_VLV mutant, 2 ml overnight cultures of XL1B cells were transformed with pQE9 containing N-terminal his-tagged KIVD enzymes and grown in Terrific Broth (BP biomedical, Cat#3046-042) with 50 μg/mL of carbenicillin. (Fisher scientific, Cat# BP2648-5) For the GEOs, 2 ml overnight cultures of BLR cells were transformed with pet29b+ plasmid containing N-terminal his-tagged GEOs, and grown in Terrific Broth with 50 μg/mL of kanamycin. (Fisher scientific, Cat# BP906-5) These cultures were diluted 1:1000 in 500 mL of Terrific Broth with 1 mM MgSO4, 1% glucose, and 50ug/mL of corresponding antibiotics, then grown at 37° C. for 24 hours. Cultures were pelleted down at 4700 rpm for 10 mins and resuspended in auto-induction media (LB broth, 1 mM MgSO4, 0.1 mM TPP, 1×NPS, and 1×5052) for induction at 18° C. for 34 hours. At the end of induction, cells were centrifuged (4700 rpm, 4° C., 20 minutes), supernatant was removed, and cells were resuspended in 40 mL lysis buffer (100 mM Hepes pH 7.5, 100 mM NaCl, 10% glycerol, 0.1 mM TPP, 1 mM MgSO4, 10 mM Imidazole, 1 mM TCEP) and 1 mM PMSF) and sonicated for 2 minutes. Lysed cells were centrifuged at 4700 rpm at 4° C. for 60 mins to remove cell debris. Supernatant was loaded on gravity flow column with 700 μl of cobalt slurry (Fisher scientific, CAT# PI-90091) washed with 10 ml of wash buffer (100 mM Hepes pH 7.5, 100 mM NaCl, 10% glycerol, 0.1 mM TPP, 1 mM MgSO4, 10 mM Imidazole, and 1 mM TCEP). Cobalt bead bed was washed with 15 ml of wash buffer 5 times and proteins were eluted with 1000 μl of elution buffer (100 mM Hepes pH 7.5, 100 mM NaCl, 10% glycerol, 0.1 mM TPP, 1 mM MgSO4, 200 mM Imidazole, and 1 mM TCEP). Protein samples were immediately buffer exchanged with spin concentrators (Satorius, CAT# VS0112) into storage buffer (100 mM Hepes pH 7.5, 100 mM NaCl, 10% glycerol, 0.1 mM TPP, 1 mM MgSO4, and 1 mM TCEP) and stored at 4° C. until kinetics characterization. Protein concentrations were determined using a Synergy H1 spectrophotometer (Biotek) by measuring absorbance at 280 nm using their calculated extinction coefficients with ExPASy ProtParam Tool.^33 All other buffers and salts were purchased from Fisher Scientific unless otherwise specified.
# (§4) The kcat and KM values of selective KIVD mutants were measured for the substrates: C3, C5, isoC5, and C8. All substrates were dissolved in MilliQ H2O and pH was adjusted to 7.5 as necessary. Activity was measured at 0.005 mM to 10 mM substrates. The assay was performed in a 96-well half-area plate. […]
# [2] = substrate: CCCC(=O)C(=O)O; type: biochemical
# Source text: as §1, §2, §3, §4
# [3] = substrate: CCCCCCC(=O)C(=O)O; type: biochemical
# Source text: as §1, §2, §3, §4
# [4] = substrate: CC(C)C(=O)C(=O)O; type: biochemical, Lactococcus lactis
# Procedure: as §3
# (§5) The kcat and KM values of selective KIVD mutants were measured for the substrates: C3, C5, isoC5, and C8. All substrates were dissolved in MilliQ H2O and pH was adjusted to 7.5 as necessary. Activity was measured at 0.005 mM to 10 mM substrates. The assay was performed in a 96-well half-area plate. Each reaction contains a final concentration of 0.5 mM NADH, 1 mM DTT, 0.1 mM TPP, 1 mM MgSO4, reaction buffer (100 mM Hepes, 100 mM NaCl, 10% glycerol, pH 7.5) and ADH (Sigma Aldrich, A7011, 10 U/ml for C3, C5 and C8 reactions, 500 U/ml for isoC5 reactions). A wide range of ketoacid decarboxylase concentrations, 4.5 nM-15 μM, were used according to the activity of each enzyme toward different substrates in order to perform steady state kinetics measurement over a period of an hour. Absorbance readings were taken every 1-minute at OD340 at 21° C. for 60 minutes using the Synergy H1. Kinetic parameters (kcat and KM) were determined by fitting initial velocity versus substrate concentration data to the Michaelis-Menten equation.
# [5] = substrate: CCCC(=O)C(=O)O; type: biochemical, Lactococcus lactis
# Procedure: as §3, §5
# [6] = substrate: CCCCCCC(=O)C(=O)O; type: biochemical, Lactococcus lactis
# Procedure: as §3, §5
Protein,Km [1],kcat [1],Km [2],kcat [2],Km [3],kcat [3],Km [4],kcat [4],Km [5],kcat [5],Km [6],kcat [6]
B1,4.9 ± 0.3 mM,0.52 ± 0.02 s⁻¹,2.7 ± 0.2 mM,4.7 ± 0.1 s⁻¹,3.8 ± 0.3 mM,1.3 ± 0.1 s⁻¹,–,–,–,–,–,–
B2,–,–,–,–,–,–,4.5 ± 0.3 mM,61 ± 2.1 s⁻¹,1.5 ± 0.1 mM,14.3 ± 0.2 s⁻¹,0.21 ± 0.04 mM,7 ± 0.3 s⁻¹
